Columns and labels:
[1] = target: T1, E2 glycoprotein expressed by recombinant vaccinia virus vHCV1-1488 (HCV-H) (Hepatitis C virus strain H (genotype 1a), UniProt P27958 384-746); assay: pulse-chase immunoprecipitation, reducing SDS-PAGE
T1 construct: 35S-labelled and immunoprecipitated from cell lysates in pulse-chase experiments

[2] = target: T2, subtype 1b derived E2 (BK strain) expressed by recombinant Sindbis virus Sinrep/HCV-BK1-1207 (Hepatitis C virus strain BK (genotype …, UniProt P26663 384-746)); assay: immunoprecipitation from cells infected with Sinrep/HCV-BK1-1207
T2 construct: Immunoprecipitated from lysates of infected cells; also called genotype 1b antigen
T2 sequence (P26663 384-746 limits assumed): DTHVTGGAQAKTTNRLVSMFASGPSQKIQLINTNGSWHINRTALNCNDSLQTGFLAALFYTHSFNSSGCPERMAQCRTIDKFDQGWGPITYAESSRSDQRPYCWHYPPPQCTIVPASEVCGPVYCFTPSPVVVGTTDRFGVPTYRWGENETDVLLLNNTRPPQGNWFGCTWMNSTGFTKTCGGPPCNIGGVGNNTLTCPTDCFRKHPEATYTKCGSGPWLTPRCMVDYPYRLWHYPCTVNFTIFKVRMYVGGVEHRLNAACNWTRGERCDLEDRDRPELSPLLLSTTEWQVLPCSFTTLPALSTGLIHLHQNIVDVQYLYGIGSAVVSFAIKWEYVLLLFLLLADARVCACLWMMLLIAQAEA

T1 sequence (P27958 384-746 limits assumed): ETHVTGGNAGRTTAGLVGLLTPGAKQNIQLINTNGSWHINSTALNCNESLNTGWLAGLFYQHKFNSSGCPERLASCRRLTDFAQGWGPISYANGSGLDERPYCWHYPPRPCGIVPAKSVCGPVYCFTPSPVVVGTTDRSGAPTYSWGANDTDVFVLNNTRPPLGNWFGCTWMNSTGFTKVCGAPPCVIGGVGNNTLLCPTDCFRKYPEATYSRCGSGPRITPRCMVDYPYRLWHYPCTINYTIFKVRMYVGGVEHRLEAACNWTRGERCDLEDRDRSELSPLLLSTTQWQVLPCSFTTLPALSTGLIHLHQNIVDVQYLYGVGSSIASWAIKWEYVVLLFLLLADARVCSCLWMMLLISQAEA

B1: HMAb 503 (antibody, V domains shown)
VH: QVQLQQWGAGLLKPSETLSLTCAVYGGSLSGYFWTWIRQSPGKGLEWIGESNYSGSTRYNPSLKSRVTISVDTSQNQFSLKLSSVTAADTAVYYCARGWAVDGMDVWGQGTTVTVSS
VL: SYELTQPPSVSVSPGQTARITCSGDALPKQYAYWYQQKPGQAPVLVIYKDNERPSGIPERFSGSRSGTTVTLTISGVQAEDEADYYCQSADSSGSSWVFGGGTKLTVL
notes: also called antibody 503; clone 503
B1: binds [1]; binds [2].

From US20060153833A1 (Genmab, published 2006)
